Drawing on paper PMC12317118, this text covers average fluorescence intensity (BiFC) for one substance.

For this test, the target named is YFPN-hAQP4 (human aquaporin 4 fused N-terminally to the YFPN fragment) (human) (UniProt P55087). The test can be described thus: split reporter (BiFC, NanoBiT); YFPN-hAQP and YFPC-CaM co-expressed in S. cerevisiae; living cells at OD600 0.5 read by flow cytometry (FACSMelody, excitation 488 nm, FITC channel 527/32 nm); fluorescence frequency and intensity of gated cells; three transformations, ten replicates each. In general terms: A flow cytometer gives signals particle by particle.
UniProt P55087, sequence (P55087 whole entry, the tested form may be a part): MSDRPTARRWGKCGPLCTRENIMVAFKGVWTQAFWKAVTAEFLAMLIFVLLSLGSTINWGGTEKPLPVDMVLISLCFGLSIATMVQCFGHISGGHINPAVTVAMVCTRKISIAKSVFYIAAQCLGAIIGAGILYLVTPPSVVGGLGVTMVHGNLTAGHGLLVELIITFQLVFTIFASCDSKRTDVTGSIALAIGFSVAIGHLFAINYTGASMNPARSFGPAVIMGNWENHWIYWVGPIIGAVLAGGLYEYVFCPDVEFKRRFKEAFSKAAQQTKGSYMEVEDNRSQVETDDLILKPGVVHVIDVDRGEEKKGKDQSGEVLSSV

With “YFPC-CaM (calmodulin fused N-terminally to the YFPC fragment) (from UniProt P0DP23 1-149) (natural protein)”, the average fluorescence intensity (BiFC) stood at 1700.
